From publication PMC6141027 come the findings set out here.

This assay addresses griffithsin (GRFT). Nature of the assay: AUC.

The term stoichiometry N denotes a count of units in the complex or per binding partner. In the case of griffithsin (GRFT) (natural protein), the stoichiometry N was 2.
